B1: peptide HD2 (from tick evasin EVA4) / CXCL14 (biotinylated, synthetic) (parent)
chain 1: EEDDYTAYAPLTCYFT
chain 2: SKCKCSRKGPKIRYSDVKKLEMKPKYPHCEEKMVIITTKSVSRYRGQEHCLHPKLQSTKRFIKWYNAWNEKRRVYEE
B2: peptide HD2 (from tick evasin EVA4) / CCL8 (biotinylated, synthetic) (parent)
chain 1: EEDDYTAYAPLTCYFT
chain 2: QPDSVSIPITCCFNVINRKIPIQRLESYTRITNIQCPKEAVIFKTKRGKEVCADPKERWVRDSMKHLDQIFQNLKP
B3: peptide HD2 (from tick evasin EVA4) / CXCL11 (biotinylated, synthetic) (parent)
chain 1: EEDDYTAYAPLTCYFT
chain 2: FPMFKRGRCLCIGPGVKAVKVADIEKASIMYPSNNCDKIEVIITLKENKGQRCLNPKSKQARLIIKKVERKNF

Variants of: B1
Conditions: with CXCL14 (biotinylated, synthetic); scale: log2

Variant | enrichment
chain 1 E1C | -8.01
chain 1 E1P | -5.8
chain 1 E1G | -5.5
chain 1 E1K | -4.33
chain 1 E1M | -5.07
chain 1 E1N | -6.84
chain 1 E1R | -6.24
chain 1 E1H | -6.24
chain 1 E1A | -5.59
chain 1 Y14M | -7.23
chain 1 Y14N | -5.16
chain 1 Y14P | -7.11
chain 1 Y14F | -6.35
chain 1 Y14G | -8.76
chain 1 Y14S | -7.93
chain 1 Y14K | -6.43
chain 1 Y14T | -7.2
chain 1 Y14D | -5.79
chain 1 Y14R | -8.35
chain 1 Y14I | -5.53
chain 1 E2R | -5.39
chain 1 E2Q | -3.16
chain 1 E2K | -3.41
chain 1 E2H | -5.9
chain 1 E2P | -5.31
chain 1 E2A | -5.18

Variant | enrichment
chain 1 E2C | -8.27
chain 1 P10K | -5.23
chain 1 P10R | -7.34
chain 1 P10T | -6.13
chain 1 P10I | -6.7
chain 1 P10N | -6.28
chain 1 P10Y | -6.83
chain 1 P10C | -7.98
chain 1 Y5K | -3.86
chain 1 Y5P | -4.99
chain 1 Y5G | -5.37
chain 1 Y5S | -7.36
chain 1 Y5V | -7.53
chain 1 Y5E | -1.74
chain 1 Y5T | -5.93
chain 1 Y5N | -5.97
chain 1 Y5Q | -3.62
chain 1 Y5R | -5.31
chain 1 Y5D | -5.31
chain 1 Y5A | -5.33
chain 1 T16R | -7.45
chain 1 T16Y | -5.41
chain 1 T16F | -5.71
chain 1 C13Y | -7.01
chain 1 C13R | -8.81
chain 1 C13H | -6.91

Variant | enrichment
chain 1 C13M | -7.78
chain 1 C13Q | -7.64
chain 1 C13F | -6.89
chain 1 C13K | -7.38
chain 1 C13I | -6.44
chain 1 C13L | -9.57
chain 1 Y8C | -7.94
chain 1 Y8G | -6.97
chain 1 Y8E | -4.45
chain 1 Y8R | -6.45
chain 1 Y8A | -7.04
chain 1 Y8Q | -4.62
chain 1 Y8T | -6.74
chain 1 Y8H | -5.83
chain 1 Y8S | -8.01
chain 1 Y8K | -4.33
chain 1 A7C | -8.1
chain 1 L11P | -6.36
chain 1 L11G | -8.51
chain 1 L11K | -5.25
chain 1 L11E | -6.43
chain 1 D3M | -6.1
chain 1 D3R | -5.71
chain 1 D3Q | -3.25
chain 1 D3K | -3.62
chain 1 D3L | -8.51

Variant | enrichment
chain 1 D3S | -7.81
chain 1 D3W | -5.18
chain 1 D3C | -8.16
chain 1 D3V | -7.6
chain 1 D3H | -5.23
chain 1 D3A | -5.29
chain 1 A9P | -6.07
chain 1 A9C | -8.35
chain 1 A9R | -6.78
chain 1 F15T | -5.59
chain 1 F15P | -5.62
chain 1 F15E | -7.19
chain 1 F15D | -6.86
chain 1 F15K | -5.27
chain 1 D4Q | -4.74
chain 1 D4G | -4.48
chain 1 D4C | -7.5
chain 1 D4R | -5.35
chain 1 D4H | -6.03
chain 1 D4V | -8.11
chain 1 D4K | -5.14
chain 1 D4A | -6.34
chain 1 D4L | -9.04
chain 1 D4T | -6.14

Variants of: B2
Conditions: with CCL8 (biotinylated, synthetic); scale: log2

Variant | enrichment
chain 1 L11P | -7.62
chain 1 Y5Q | -4.88
chain 1 Y5K | -5.12
chain 1 Y5R | -6.57
chain 1 P10M | -8.02
chain 1 P10V | -9.9
chain 1 P10K | -6.48
chain 1 P10F | -8.93
chain 1 P10I | -7.96
chain 1 P10H | -7.47
chain 1 A9P | -7.32
chain 1 E2C | -9.53
chain 1 C13P | -9.12
chain 1 Y8E | -5.7
chain 1 Y8G | -8.23
chain 1 Y8Q | -5.88
chain 1 Y8K | -5.59
chain 1 Y8P | -7.38

Variants of: B3
Conditions: with CXCL11 (biotinylated, synthetic); scale: log2

Variant | enrichment
chain 1 E2Q | -2.04
chain 1 E2C | -7.15
chain 1 E2R | -4.27
chain 1 E2P | -4.19
chain 1 Y14K | -5.3
chain 1 Y14M | -6.11
chain 1 Y14R | -7.23
chain 1 Y14I | -4.41
chain 1 Y14P | -5.99
chain 1 Y14E | -5.9
chain 1 Y14D | -4.67
chain 1 Y14N | -4.04
chain 1 Y14Q | -5.19
chain 1 Y14S | -6.81
chain 1 T12G | -7.44
chain 1 T12K | -4.72
chain 1 P10Y | -5.7
chain 1 P10F | -6.55
chain 1 P10C | -6.86
chain 1 P10R | -6.22
chain 1 P10K | -4.1
chain 1 P10Q | -3.53
chain 1 D4T | -5.01
chain 1 D4N | -5.1

Variant | enrichment
chain 1 D4E | -3.08
chain 1 D4R | -4.23
chain 1 D4C | -6.38
chain 1 D4H | -4.91
chain 1 D4K | -4.01
chain 1 D4G | -3.36
chain 1 D4A | -5.22
chain 1 C13W | -6.78
chain 1 C13Y | -5.88
chain 1 C13G | -7.57
chain 1 C13D | -6.29
chain 1 C13R | -7.69
chain 1 C13I | -5.31
chain 1 C13K | -6.26
chain 1 F15N | -3.87
chain 1 D3H | -4.1
chain 1 D3K | -2.5
chain 1 D3E | -1.84
chain 1 D3A | -4.17
chain 1 D3R | -4.59
chain 1 D3P | -4.65
chain 1 D3M | -4.98
chain 1 D3C | -7.03

— publication PMC11969024, “Development of chemokine network inhibitors using combinatorial saturation mutagenesis” (Communications Biology, 2025)
